Source: patent publication US12419977B2, “Radiopharmaceuticals” (AdvanCell Isotopes Pty Limited, priority 2022, dated 2025)

Test system: PC3-PIP (PSMA expressing) and PC3 (PSMA deficient) tumours
Design: species or system male BALB/c nude mice
Settings: mouse, in vivo
Experimental: In vivo biodistribution studies of [^212Pb]Pb-ADVC001 were performed using an animal model of prostate cancer. Tumour xenographs were grown on opposite flanks of male BALB/c nude mice after inoculation with 10^6 PC3-PIP (PSMA expressing) and PC3 (PSMA deficient) cell lines. In this model, the PC3 tumours act as a control to assess the specificity of [^212Pb]Pb-ADVC001 uptake within PSMA expressing tumours. Once the tumours had reached 5-10 mm in size, 3 groups (representing 3 different time points) of 5 mice were injected with 300-325 kBq of [^212Pb]Pb-ADVC001 via the lateral tail vein. At 1, 4 and 24 hours after injection, mice were euthanised and multiple organs collected and weighed. Radioactivity in each organ was counted using a well-type gamma counter (counting window 218-258 keV). Activity levels of [^212Pb]Pb-ADVC001 expressed as percent injected dose/gram of tissue (% ID/g) measured from each organ over the 3 time points are given in Table 1 with the biodistribution plots presented in FIG. 1A. Activity accumulation over time of [^212Pb]Pb-ADVC001 for major organs (kidney, liver and bone marrow) along with tumour uptake is provided in FIG. 3. […] The biodistribution of [^212Pb]Pb-PSMA-I&T expressed as percent injected dose/gram of tissue (% ID/g) measured from each organ over the 3 time points is presented in FIG. 1B. […]

NC(=O)CN1CCN(CC(N)=O)CCN(C(CCC(=O)N[C@H](Cc2ccc(O)c(I)c2)C(=O)N[C@H](Cc2ccccc2)C(=O)N[C@H](CCCCNC(=O)CCCCCCC(=O)NCCCC[C@H](NC(=O)N[C@@H](CCC(=O)O)C(=O)O)C(=O)O)C(=O)O)C(=O)O)CCN(CC(N)=O)CC1 (stereo partly shown) [[^212Pb]Pb-ADVC001, metal not drawn]
tumour to kidney activity ratio: significantly higher
